Data on seven molecules can be found in publication PMC3991615, “The N-Terminal Domain of the Repressor of Staphylococcus aureus Phage Φ11 Possesses an Unusual Dimerization Ability and DNA Binding Affinity”.

Data set [1] has as its target T1, rNTD (N-terminal domain of phage phi11 CI repressor) (Staphylococcus aureus phage phi11) (UniProt Q8SDX2).
T1 sequence: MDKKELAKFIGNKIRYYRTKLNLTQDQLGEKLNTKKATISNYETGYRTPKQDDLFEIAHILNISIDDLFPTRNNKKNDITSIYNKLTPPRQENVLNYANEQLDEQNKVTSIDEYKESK
As to the kind of experiment: EMSA. As to conditions: EMSA with ~0.1 nM 32P-DNA, 20 min on ice (0°C) unless 42°C; RNAP assay and protein storage in buffer C (10 mM Tris-HCl pH 8.0, 200 mM NaCl, 1 mM EDTA, 5% …).

The target of data set [2] is T2, rCI (phage phi11 CI lysogenic repressor) (Staphylococcus aureus phage phi11) (UniProt Q8SDX2).
T2 sequence: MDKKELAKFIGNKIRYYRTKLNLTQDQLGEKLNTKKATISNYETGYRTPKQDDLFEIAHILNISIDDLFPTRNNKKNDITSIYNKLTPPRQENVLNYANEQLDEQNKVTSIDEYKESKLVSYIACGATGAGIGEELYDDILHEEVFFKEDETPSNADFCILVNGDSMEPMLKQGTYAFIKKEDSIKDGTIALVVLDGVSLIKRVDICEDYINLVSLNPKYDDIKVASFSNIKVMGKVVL
Kind of data set: EMSA. As to conditions: EMSA with ~0.1 nM 32P-DNA, 20 min on ice (0°C) unless 42°C; RNAP assay and protein storage in buffer C (10 mM Tris-HCl pH 8.0, 200 mM NaCl, 1 mM EDTA, 5% …). (A gel shift assay detects complexes by their altered migration in electrophoresis.)

Data set [3] concerns the target T1, rNTD (N-terminal domain of phage phi11 CI repressor) (Staphylococcus aureus phage phi11). Kind of data set: DMS footprinting. As to conditions: EMSA with ~0.1 nM 32P-DNA, 20 min on ice (0°C) unless 42°C; RNAP assay and protein storage in buffer C (10 mM Tris-HCl pH 8.0, 200 mM NaCl, 1 mM EDTA, 5% …).
The target in data set [4] is recombinant N-terminal domain (NTD) of the Φ11 lysogenic repressor CI (Staphylococcus aureus phage Φ11). Kind of data set: cross-linking; glutaraldehyde (0.1%), 1-5 µM protein, products analysed by 13.5% SDS-PAGE.
For data set [5] the target is unchanged. As to the kind of experiment: SEC; analytical gel filtration, 10 µM protein in buffer C (10 mM Tris-HCl pH 8.0, 200 mM NaCl, 1 mM EDTA, 5% glycerol) with 10 mM β-mercaptoethanol; calibrated with conalbumin, ovalbumin, carbonic anhydrase, cytochrome C. For orientation: SEC sorts molecules by how far they enter the pores of the column.
Data set [6] addresses Φ11 CI with a C-terminal histidine tag (Staphylococcus aureus phage Φ11). Kind of data set: cross-linking; glutaraldehyde (0.1%), 1-5 µM protein, products analysed by 13.5% SDS-PAGE.
Data set [7] has the same target. Kind of data set: SEC; analytical gel filtration, 10 µM protein in buffer C (10 mM Tris-HCl pH 8.0, 200 mM NaCl, 1 mM EDTA, 5% glycerol) with 10 mM β-mercaptoethanol; calibrated with conalbumin, ovalbumin, carbonic anhydrase, cytochrome C.
Data set [8] has as its target T3, rCI (phage phi11 CI lysogenic repressor) (Staphylococcus aureus phage phi11, UniProt Q8SDX2 1-239).
T3 sequence: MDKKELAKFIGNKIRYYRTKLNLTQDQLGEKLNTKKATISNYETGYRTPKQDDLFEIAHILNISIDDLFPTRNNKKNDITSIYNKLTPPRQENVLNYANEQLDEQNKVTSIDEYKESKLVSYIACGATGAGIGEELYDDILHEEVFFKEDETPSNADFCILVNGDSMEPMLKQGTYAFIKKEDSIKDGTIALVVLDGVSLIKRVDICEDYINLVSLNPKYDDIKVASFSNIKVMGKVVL
Kind of data set: EMSA; 0°C (on ice); EMSA with ~0.1 nM 32P-DNA, 20 min on ice (0°C) unless 42°C; RNAP assay and protein storage in buffer C (10 mM Tris-HCl pH 8.0, 200 mM NaCl, 1 mM EDTA, 5% glycerol); standard EMSA buffer not printed (per refs 7, 8); native PAGE 6% or 10%. As to conditions: protein: recombinant; tags: C-terminal His tag; chain copies: 2; label: 32P; 3' overhang 1 nt (both ends).

The target of data set [9] is T4, rNTD (N-terminal domain of phage phi11 CI repressor) (Staphylococcus aureus phage phi11, UniProt Q8SDX2 1-118).
T4 sequence: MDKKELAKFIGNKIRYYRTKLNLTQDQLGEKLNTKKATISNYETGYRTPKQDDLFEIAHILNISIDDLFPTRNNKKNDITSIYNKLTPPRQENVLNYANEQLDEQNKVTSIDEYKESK
The data set is described as above. As to conditions: protein: recombinant, tags: C-terminal His6 (8 additional residues), chain copies: 2, label: 32P.

As for “ATTCAACAAAAAAATACACGAAAAGCAAACTTTTATGTTGACTCAAGTACACGTATCGTGTATAGTAGGTTTTGTAAGCGGGAGGTGACAACATGCAATGGAATTTAATAAAGTTGAGAAAAGAAAGAAAGTGTACTCAAGAAGATTTAGGATCC (double strand) [O1O2]”, the binding result in data set [1] and in [2] was “binds” in each case. As to “CTCGAGCATTTTAACTACGTTTGCAGCTTGCTCGCCACGGTCGCCTTCAACGATGTCGAATTCAACTTTTTGGCCTTCTTCTAATGATTTGTATCCATCTTCAGCGATTGCTGAGAAGTGTACGAATACGTCGCTACCATCTTCTCTTTCGATGAAACCAAAACCTTTTTCTGCATTAAACCATTTAACTGTACCGTTATTCATCCATGGCATG (double strand) [cspC]”, the binding entry in data set [1] is listed as “no binding”.

Consider “GGATCCTAAATCTTCTTGAGTACACTTTCTTTCTTTTCTCAACTTTATTAAATTCCATTGCATGTTGTCACCTCCCGCTTACAAAACCTACTATACACGATACGTGTACTTGAGTCAACATAAAAGTTTGCTTTTCGTGTATTTTTTTGTTGAATACCAAAAATAATTGGGTTATACTATAGGTAAATTTAAGGAGGTAAGAAAATGGATAAAAAAGAATTAGCGAAATTTATAGGCAATAAAATCAGATACTATAGAACCAAGAATTC (double strand) [O]”, for which the binding entry in [1] and in data set [3] was “binds” throughout. Take “recombinant N-terminal domain (NTD) of the Φ11 lysogenic repressor CI (domain or fragment)”: the stoichiometry N in [4] and in data set [5] was 2 throughout. Consider “Φ11 CI with a C-terminal histidine tag (natural protein)”, for which the stoichiometry N in [6] and in [7] was 2 throughout.

B1: O1 (dsDNA)
DNA 1: GACTCAAGTACACGTATCGTGTATAGTAGGTTTA
DNA 2: AAACCTACTATACACGATACGTGTACTTGAGTCA
As for B1, the Kd (as a rule, the free concentration of one partner at which half of the binding sites on the other are occupied at equilibrium, for simple one-to-one binding) in data set [8] was found to be 3.17 ± 0.75 nM; in data set [9] (3' overhang 1 nt (both ends)), 3.13 ± 0.51 nM.

B2: O2 (dsDNA)
DNA 1: ATTCAACAAAAAAATACACGAAAAGCAAACTTTTATGTTGACTCAAGTA
DNA 2: TACTTGAGTCAACATAAAAGTTTGCTTTTCGTGTATTTTTTTGTTGAAT
Regarding B2, the Kd in [9] (blunt) was 7.83 ± 0.44 nM.
